From EP2390325A1, “FLAVONOID-3-GLUCURONYLTRANSFERASE AND POLYNUCLEOTIDE ENCODING SAME” (Suntory Holdings Limited, priority 2009, dated 2010)

Assays:
VvGT5 [1] = molecular target: T1, VvGT5 (Vitis vinifera, UniProt C7G3B5); experiment: Glycosyl donor specificity of VvGT5, product amount by HPLC; type: biochemical; details: 100 µM quercetin, 1 mM glycosyl donor, pH 9.5, 30°C, 15 minutes
T1 sequence (C7G3B5 1-459): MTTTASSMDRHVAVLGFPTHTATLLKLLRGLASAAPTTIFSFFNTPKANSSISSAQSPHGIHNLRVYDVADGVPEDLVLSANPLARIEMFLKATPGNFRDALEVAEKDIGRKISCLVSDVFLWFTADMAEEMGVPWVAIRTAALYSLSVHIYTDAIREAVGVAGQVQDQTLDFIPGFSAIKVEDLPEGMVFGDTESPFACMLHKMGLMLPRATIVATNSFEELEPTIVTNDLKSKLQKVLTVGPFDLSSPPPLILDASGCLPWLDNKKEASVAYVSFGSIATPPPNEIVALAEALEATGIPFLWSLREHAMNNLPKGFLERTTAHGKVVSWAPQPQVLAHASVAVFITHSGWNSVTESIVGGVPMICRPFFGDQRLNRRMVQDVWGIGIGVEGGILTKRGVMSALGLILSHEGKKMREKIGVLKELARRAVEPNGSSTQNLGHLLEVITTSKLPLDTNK
Method: (§1) Next, the glycosyl donor specificity of this enzyme was examined. […] The reaction was started by adding the glycosyl acceptor. The reaction was stopped by adding an equal volume of 40% acetonitrile solution containing 0.1% TFA. After the reaction was stopped, the solution was centrifuged (15000 rpm, 2 mins., 4°C) and 100 µl of the resulting supernatant was provided for the HPLC analysis. The amounts of the products produced in the respective glycosyl donors were compared.

VvGT5 [2] = molecular target: T1, VvGT5; experiment: Glycosyl acceptor specificity of VvGT5, product amount by HPLC; type: biochemical; details: 100 µM glycosyl acceptor, 1 mM UDP-glucuronic acid, pH 9.5, 30°C, 15 minutes
Method: as §1, with “acceptor” for “donor”, “were compared for each” for “in the respective”, “acceptor.” for “donors were compared.”
Anthocyanins were analyzed under the conditions below using the HPLC system described above. Conditions for the HPLC analysis of anthocyanins were as follows. Asahipak ODP-50 4E (4.6 x 250 mm, Showa Denko K.K.) as a column was used at room temperature. Moving phase A (0.5% TFA/H2O) and moving phase B (0.5% TFA/50% GH3CN) were used. Conditions for elution were as follows: Equilibration was performed with B30% for 3 minutes, followed by linear density gradients (B30%→B65%) for 15 minutes and (B65%→B100%) for further 1 minute, which was maintained for 5 minutes at B100%. Thereafter, the condition was again reverted to B30% to equilibrate for 10 minutes. The flow rate was 0.7 ml/min. Detection was performed at 520 nm. Under the conditions, standard pelargonidin, cyanidin and delphinidin were sequentially eluted in this order at retention times of approximately […], respectively.

[3] = substrate: COc1cc(-c2oc3cc(O)cc(O)c3c(=O)c2O)ccc1O; experiment: Kinetic analysis of VvGT5 (Km, kcat); type: biochemical, Vitis vinifera; details: other: glycosyl acceptor substrate; purified His-tagged VvGT5; pH 9.5; 30.0 °C
[4] = substrate: O=c1c(O)c(-c2ccc(O)c(O)c2)oc2cc(O)cc(O)c12; experiment: Kinetic analysis of VvGT5 (Km, kcat); type: biochemical, Vitis vinifera; details: other: glycosyl acceptor substrate; purified His-tagged VvGT5; pH 9.5; 30.0 °C
[5] = substrate: O=c1c(O)c(-c2ccc(O)cc2)oc2cc(O)cc(O)c12; experiment: Kinetic analysis of VvGT5 (Km, kcat); type: biochemical, Vitis vinifera; details: other: glycosyl acceptor substrate; purified His-tagged VvGT5; pH 9.5; 30.0 °C
[6] = substrate: O=C(O)[C@H]1O[C@H](OP(=O)(O)OP(=O)(O)OC[C@H]2O[C@@H](n3ccc(=O)[nH]c3=O)[C@H](O)[C@@H]2O)[C@H](O)[C@@H](O)[C@@H]1O; experiment: purified protein, by the assay type; details: other: glycosyl donor; purified His-tagged VvGT5; pH 9.5; 30.0 °C

Which “product formation with glycosyl donor” value (VvGT5 [1]) does the source give for `O=C(O)[C@H]1O[C@H](OP(=O)(O)OP(=O)(O)OC[C@H]2O[C@@H](n3ccc(=O)[nH]c3=O)[C@H](O)[C@@H]2O)[C@H](O)[C@@H](O)[C@@H]1O` [UDP-glucuronic acid] here?
The value was “the product was obtained only when UDP-glucuronic acid was used as the substrate”.

`O=c1c(O)c(-c2ccc(O)c(O)c2)oc2cc(O)cc(O)c12` [quercetin] was tested. Which “activity of VvGT5 on glycosyl acceptor” value (VvGT5 [2]) did it give?
The value was “highest activity”.

B1: VvGT5 (Vitis vinifera) (protein)
chain: T1 sequence (C7G3B5 1-459)
How did the Km [3] turn out when B1 was run?
Its Km is 7.92 ± 0.32 µM.

What about the kcat [3] of the same molecule?
The kcat was 0.413 ± 0.03 s⁻¹.

And the Km [4]?
Its Km is 5.60 ± 1.76 µM.

And the kcat [4]?
Its kcat is 7.16 ± 0.37 s⁻¹.

And the Km [5]?
The Km was 10.8 ± 0.4 µM.

And the kcat [5]?
The kcat was 6.05 ± 0.05 s⁻¹.

And the Km [6]?
The Km was 17.7 µM.
